Test results: US20200277361A1 (PROTHENA BIOSCIENCES, published 2020)

Assays:
pH4.0-treated TTR [1] = target: T1, pH4.0-treated TTR (human, UniProt P02766 21-147); test: Sandwich ELISA (pH4-TTR)
[2] = target: recombinant human TTR F87M/L110M (human, UniProt P02766 21-147); test: SPR, mAb captured on anti-mouse IgG chip, TTR F87M/L110M as analyte
pH4.0-treated TTR [3] = target: T1, pH4.0-treated TTR; test: ELISA, pH4-TTR captured on anti-His coated plate
pH4.0-treated TTR [4] = target: T1, pH4.0-treated TTR; test: ELISA on pH4-treated TTR captured on an anti-His coated plate, anti-mouse HRP detection, OD450

Kd (pH4.0-treated TTR [1]): 21.3 nM | Kd [2]: 7.68 nM | koff [2]: 0.000469 s⁻¹ | kon [2]: 61100 M⁻¹ s⁻¹ | Kd (pH4.0-treated TTR [3]): 23 nM | EC50 (read off the curve) (pH4.0-treated TTR [4]): ~0.3 µg/mL
B1: mouse antibody 5A1 (antibody, IgG1, V domains shown)
VH: EVKLVESGGGLVRPGGSLKLSCAASGFTFSNYAMSWVRQTPEKRLEWVASISSGGSTYYPDSVKGRFTISRDNARNILYLQMSSLRSEDTAMYYCVRYYYGQYFDFWGQGTALTVSS
VL: DIVMTQSHKFMSTSVGDRVSITCKASQDVSTTVAWYRQKPGQSPELLIYSASYRCTGVPDRFTGSGSGADFTFTISSVQAEDLAVYYCQQHYSTPLTFGAGTKLELK
notes: also called m5A1; mis-TTR antibody 5A1
